{"source": "paper PMC5443158", "test_system": "CodY (Streptococcus pneumoniae D39)", "test": "EMSA", "settings": "lowest CodY concentration giving binding, 10 nM DNA, 5X binding buffer: 20 mM Tris-HCl pH 7.5, 30 mM KCl, 1 mM DTT, 1 mM EDTA, 10% glycerol, room temperature, 30 min (Fig 4A,B) or 20 min (Fig 4C), 20 ul, 8% …"}
{"substance": "tpxD promoter probe (FAM)", "values": [{"measurement": "binding", "setting": "2 mM H2O2", "result": 400, "unit": "nM"}, {"measurement": "binding", "setting": "no H2O2, no BCAA", "result": 600, "unit": "nM"}]}
